Patent CN112707964A
Changes are numbered by the printed parent chain.

B1: WT 1-5 (antibody, from another filing)
heavy: QVRLQESGPSQVKPAQTLSLTCAISGPSLTTYYLDWVRHTPGKPPEWLAQMTKDANAVHNPTVRSRLSITRDTSKSQVFLKLTGVTTEDTAVYYCVKGLIDFGPGLLVTVSSASTTPPKVYPLTSCCGDTSSSIVTLGCLVSSYMPEPVTVTWNSGALTSGVHTFPAILQSSGLYSLSSVVTVPASTSGAQTFICNVAHPASSTKVDKRVEPGCPDPCKHCRCPPPELPGGPSVFIFPPKPKDTLTISGTPEVTCVVVDVGQDDPEVQFSWFVDNVEVRTARTKPREEQFNSTFRVVSALPIQHQDWTGGKEFKCKVHNEGLPAPIVRTISRTKGQAREPQVYVLAPPQEELSKSTLSVTCLVTGFYPDYIAVEWQKNGQPESEDKYGTTTSQLDADGSYFLYSRLRVDKNSWQEGDTYACVVMHEALHNHYTQKSISKPPGK
light: QAVLTQPSSVSRSLGQTVSITCSGSSDQVGPGDYLNWFQLIPGSAPKTLIFAASSRIRGVPDRFSGSRSGNTATLTINSLQAEDEADYYCGSANSRNYVWGSGTRLTVLSQPKSAPSVTLFPPSKEELDTNKATVVCLISDFYPGSVNVVWKADGSTINQNVKTTQASKQSNSKYAASSYLTLTGSEWKSKSSYTCEVTHEGSTVTKTVKPSECS
B2: WT 1-4 (antibody, from another filing)
heavy: B1 heavy with L29V, L34V, N60Q, V63L, L99V
light: QAVLTQPSSVSRSLGQTVSITCSGSSDQVGPGDYVNWFQLIPGSAPKTLIFAATSRIRGVPDRFSGSRSGNTATLTINSLQAEDEADYYCGSGNSRGGYVWGSGTRLTVLSQPKSAPSVTLFPPSKEELDTNKATVVCLISDFYPGSVNVVWKADGSTINQNVKTTQASKQSNSKYAASSYLTLTGSEWKSKSSYTCEVTHEGSTVTKTVKPSECS
B3: WT 1-6 (antibody, from another filing, V domains shown)
VH: QVRLQESGPSQVKPAQTLSLTCAISGPSITTYYVDWVRHTPGKPPEWLAQMTKDANAVHQPTIRSRLSITRDTSKSQVFLKLTGVTTEDTAVYYCVKGLIDWGPGLLVTVSS
V domain: QAVLTQPSSVSRSLGQTVSITCSGSSDQVGPGDYLNWFQLIPGSAPKTLIFAASSRLRGVPDRFSGSRSGNTATLTINSLQAEDEADYYCGSANSRGGYVWGSGTRLTVLS
B4: WT 1-7 (antibody, from another filing, V domains shown)
VH: B3 VH with I29V, V34L, I63V, L99V
V domain: B3 V domain with Q28N, L35I, S54Y, A93G
B5: WT 1-2 (antibody, from another filing, V domains shown)
VH: B3 VH with I29L, V34I, I63L, L99V
V domain: QAVLTQPSSVSRSLGQTVSITCSGSSDNVGPGDYLNWFQLIPGSAPKTLIFAASSRIRGVPDRFSGSRSGNTATLTINSLQAEDEADYYCGSPNSRNYVWGSGTRLTVLS
B6: WT 1-1 (antibody, from another filing, V domains shown)
VH: B3 VH with I29V, V34I, Q60N, L99V
V domain: B5 V domain with L35I, S54Y, P93A
B7: WT 1-8 (antibody, from another filing, V domains shown)
VH: B3 VH with I29L, I63V, L99I
V domain: B5 V domain with L35I, S54Y, I57V
B8: WT 1-9 (antibody, from another filing, V domains shown)
VH: B3 VH with I29V, V34I, I63L
V domain: B3 V domain with Q28N, L35V, S54Y, A93G

The binders below were run against 重组NT抗原(自产，130410) (human) (UniProt P16860) (assay: BLI, antibody captured on AMC sensor, antigen in solution).
UniProt P16860, sequence (P16860 27-102): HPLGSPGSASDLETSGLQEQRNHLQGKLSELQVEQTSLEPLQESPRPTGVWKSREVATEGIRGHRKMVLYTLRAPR
In the case of B1, the Kd is reported as 5.31 nM.
In the case of B2, the Kd is reported as 9.63 nM.
B3 gave a Kd of 5.25 nM.
B4 showed a Kd of 6.76 nM.
Work on B5 yielded a Kd of 6.74 nM.
B6 showed a Kd of 6.25 nM.
For B7, the Kd was 8.36 nM.
B8 gave a Kd of 7.55 nM.
